{
  "source": "paper PMC4120848",
  "assay_in_all_cases": "mMAPS",
  "key": {"[1]": {"biological_target": "endogenous EGFR (HeLa cells) (human (endogenous in HeLa)) (UniProt P00533)"}, "[2]": {"biological_target": "endogenous EGFR phosphorylated at Tyr1068 (HeLa cells) (human (endogenous in HeLa)) (UniProt P00533)"}, "[3]": {"biological_target": "endogenous EGFR (HeLa cells) (human (endogenous in HeLa)) (UniProt P00533)", "remark": "listed apart in the source"}, "[4]": {"biological_target": "endogenous EGFR phosphorylated at Tyr1068 (HeLa cells) (human (endogenous in HeLa)) (UniProt P00533)", "remark": "listed apart in the source"}},
  "note": "Where two headings read alike, the source gives them in different places.",
  "data": [
    {"substance": "A647-conjugated EGF (ligand)", "values": [
      {"measurement": "percent of total detected EGFR events that are EGF-EGFR", "setting": "[1]", "value": 4.35, "unit": "%"},
      {"measurement": "percent of total detected EGFR events that are EGF-EGFR-pTyr1068", "setting": "[2]", "value": 2.64, "unit": "%"},
      {"measurement": "percent of total detected EGFR events that are EGF-EGFR", "setting": "[3]", "value": 3.3, "unit": "%"},
      {"measurement": "percent of total detected EGFR events that are EGF-EGFR-pTyr1068", "setting": "[4]", "value": 1.27, "unit": "%"}
    ]}
  ]
}
